From patent US20100291108A1 (published 2010)

Legend:
[1] = biological target: human IREM-1 (full-length, on cells) (human, UniProt Q8TDQ1 20-290); test: cell-based or functional assay
[2] = biological target: T1, IREM-1Δ6 deletion construct (human); test: flow cytometry on 293 cells expressing the construct
T1 construct: Deletion construct of IREM-1 expressed in 293 cells
T1 chain: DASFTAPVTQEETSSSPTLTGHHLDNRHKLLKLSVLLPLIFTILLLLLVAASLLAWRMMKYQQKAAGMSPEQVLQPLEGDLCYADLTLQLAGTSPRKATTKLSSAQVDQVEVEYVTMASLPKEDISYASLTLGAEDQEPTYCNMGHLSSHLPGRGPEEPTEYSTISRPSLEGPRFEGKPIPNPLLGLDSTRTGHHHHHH

[3] = biological target: IREM-1Δ1 deletion construct (human); test: as above
[4] = biological target: T2, IREM-1Δ2 deletion construct (human); test: as above
T2 construct: Deletion construct of IREM-1 expressed in 293 cells
T2 chain: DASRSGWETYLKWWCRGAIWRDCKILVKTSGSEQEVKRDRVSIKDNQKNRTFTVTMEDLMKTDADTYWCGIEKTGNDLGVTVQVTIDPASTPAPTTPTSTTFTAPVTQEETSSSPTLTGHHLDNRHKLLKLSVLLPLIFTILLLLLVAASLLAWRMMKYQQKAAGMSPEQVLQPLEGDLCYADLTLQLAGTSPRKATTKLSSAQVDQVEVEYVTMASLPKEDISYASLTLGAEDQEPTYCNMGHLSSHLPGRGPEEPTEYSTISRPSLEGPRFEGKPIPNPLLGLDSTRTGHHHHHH

[5] = biological target: T3, IREM-1Δ3 deletion construct (human); test: as above
T3 construct: Deletion construct of IREM-1 expressed in 293 cells
T3 chain: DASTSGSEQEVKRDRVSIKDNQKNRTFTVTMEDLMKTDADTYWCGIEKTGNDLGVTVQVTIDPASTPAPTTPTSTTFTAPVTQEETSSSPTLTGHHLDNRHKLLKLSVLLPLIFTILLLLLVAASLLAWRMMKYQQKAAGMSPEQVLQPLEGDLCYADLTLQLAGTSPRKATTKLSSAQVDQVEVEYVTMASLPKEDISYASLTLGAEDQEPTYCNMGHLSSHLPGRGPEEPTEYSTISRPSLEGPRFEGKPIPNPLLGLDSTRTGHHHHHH

[6] = biological target: T4, IREM-1Δ4 deletion construct (human); test: as above
T4 construct: Deletion construct of IREM-1 expressed in 293 cells
T4 chain: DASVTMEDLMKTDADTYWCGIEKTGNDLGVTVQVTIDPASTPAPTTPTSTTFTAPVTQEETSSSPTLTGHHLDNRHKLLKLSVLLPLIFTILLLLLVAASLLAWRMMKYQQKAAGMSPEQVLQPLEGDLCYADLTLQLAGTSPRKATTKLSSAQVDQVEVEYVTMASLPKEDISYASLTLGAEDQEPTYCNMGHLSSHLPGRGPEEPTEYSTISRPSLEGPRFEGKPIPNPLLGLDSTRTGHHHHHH

[7] = biological target: T5, IREM-1Δ5 deletion construct (human); test: as above
T5 construct: Deletion construct of IREM-1 expressed in 293 cells
T5 chain: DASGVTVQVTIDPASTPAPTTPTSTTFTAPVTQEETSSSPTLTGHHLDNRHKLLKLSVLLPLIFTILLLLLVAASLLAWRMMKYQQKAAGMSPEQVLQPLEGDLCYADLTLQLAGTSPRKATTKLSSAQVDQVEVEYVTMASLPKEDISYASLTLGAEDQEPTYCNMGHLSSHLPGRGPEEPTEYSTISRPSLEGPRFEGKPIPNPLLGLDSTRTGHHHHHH

[8] = biological target: T6, IREM-1-ECD-V5His recombinant protein (human, UniProt Q8TDQ1 20-156); test: SPR (Biacore), mAb captured on the chip, antigen in solution, 25 C
T6 construct: Produced in HEK-293 cells and purified on a Ni column; also called IREM-1 V5-6His protein; recombinant IREM-1 protein containing the complete extracellular domain; not shown: C-terminal V5-His tag

[9] = biological target: T6, IREM-1-ECD-V5His recombinant protein; test: SPR (Biacore), mAb captured on the chip, antigen in solution, 25 C; KD = kd/ka
Description: Kinetic rate constants (kₐ and kd) were determined using surface plasmon resonance and affinities (KD) were then calculated from the rate constants (kd/kₐ). Surface plasmon resonance was carried out on a BlAcore system (Biacore International AB, Uppsala, Sweden). […] Each of 5 concentrations was tested twice except the highest concentration which was tested 5 times in total, two times with a short dissociation of 300 seconds followed by three times with a dissociation of 60 minutes. The data sets from the long dissociation experiments were globally fit with the shorter association experiments to determine binding constants for the interactions. The analysis was carried out in HBS, pH 7.4 buffer at 25° C.

Binder	CDC (complement-dependent cytotoxicity) EC50 on 293 cells expressing IREM-1 [1]	CDC EC50 on AML cell line HL-60 [1]	CDC EC50 on stage M1 AML patient sample [1]	binding result [2]	binding result [3]	binding result [4]	binding result [5]	binding result [6]	binding result [7]	kon [8]	koff [8]	Kd [9]
chimeric anti-IREM-1 monoclonal antibody 871.1 (antibody, human IgG1, V domains shown, The CDC assays use an IgG2b isotype control, so the murine form may have been used there; No cleavage site is stated; also called mAb 871.1; VL1VH1) VH: EVKLVESGGGLVQPGGSLSLSCAASGFTFTDYYMSWVRQPPGMAPEWLGFIRNKANGYTTEYSASVKGRFTISRDDSQSILYLQMNALRAEDSATYYCAREDYGSSWGYYAMDCWGQGTSVTVSS VL: DIVMTQSQKFMSTSVGDRVSVTCKASQNVDTNVAWYQQKPGQSPKALLYSASYRHSGVPDRFTGSGSETDFTLTITNVQSEDLAEYFCQQYNSFPLTFGSGTKLEIRR	~10 ng/mL	1970 to 3840 ng/mL	0.0062 ng/mL	no binding	binds	no binding	no binding	no binding	no binding	228000 M⁻¹ s⁻¹		
chimeric anti-IREM-1 monoclonal antibody B11 (antibody, human IgG1, V domains shown, No cleavage site is stated; also called mAb B11; VL2VH2) VH: QIQLVQSGPELEKPGETVKISCKASGYTFTNYPMHWVKQAPGKGLKWMGWINTYSGVPTYADDFKGRFAFSLETSASTAYLQINNLKNEDMATYFCARMDYYSNGFNYWGQGTTLTVSS VL: DVLMTQTPLSLPVSLGDQASISCRSSQSIVHSNGNTYLEWYLQKPGQSPKLLIYKVSNRFSGVPDRFSGSGSGTDFTLKISRVEAEDLGVYYCFQGSHVPWTFGGGTKLEIKR				no binding	binds	no binding	no binding	no binding	no binding	282000 M⁻¹ s⁻¹	0.00066 s⁻¹	2.3 nM
chimeric anti-IREM-1 monoclonal antibody D12 (antibody, human IgG1, V domains shown, No cleavage site is stated; also called mAb D12; clone #D12) VH: EIQLQQSGAELVRPGTSVKVSCKASGYAFTNYLIEWVKQRPGQGLEWIGVINPGSGGSYYNEKFKGKTTLTADKSSSTAYMQLSSLAFDDSAVYFCARSESNYSYYYAMDYWGQGTSVIVSS VL: not shown				no binding	binds	no binding	no binding	no binding	no binding	255000 M⁻¹ s⁻¹	0.00072 s⁻¹	2.8 nM
